Data as given in PMC8556268.

Biological target: T1, Biotinylated Tir-10_v2 (Biotin-Ahx-EHI-pY-DEVAAD)
T1 chain: EHIYDEVAAD
Experiment: SPR; Biacore T100, 25 °C, Series S SA chip, about 15 RUs of biotinylated peptide captured; 10 mM HEPES pH 7.4, 150 mM NaCl, 3 mM EDTA, 0.05% P20, 0.1 mg/mL BSA; analytes 60 nM free SH2, 10 nM tcTRP24_(8)SS-SH2_(2), 10 nM tcTRP24_(8)SS; 50 μL/minute

B1: free SH2 domain derived from the Nck adapter protein, P16333 282-376 (domain or fragment)
chain: WYYGKVTRHQAEMALNERGHEGDFLIRDSESSPNDFSVSLKAQGKNKHFKVQLKETVYCIGQRKFSTMEELVEHYKKAPIFTSEQGEKLYLVKHL
modifications: not checked
  maximum binding response: 125 RUs

B2: tcTRP24_(8)SS-SH2_(2) (trimeric tcTRP24 particle with two Nck SH2 domains in each subunit, six in all), P16333 282-376; P16333 282-376 (protein)
chain: SELAARCLIILFQQLVELARLAIESGDEELLRRVSEWLEEVIKDMRRVVEQALREGNSELAARILIILFQQLVELARLAIESGDEELLRRVSEWLEEVIKDMRRVVEQALREGNWYYGKVTRHQAEMALNERGHEGDFLIRDSESSPNDFSVSLKAQGKNKHFKVQLKETVYCIGQRKFSTMEELVEHYKKAPIFTSEQGEKLYLVKHLSELAARILIILFQQLVELARLAIESGDEELLRRVSEWLEEVIKDMRRVVEQALREGNSELAARILIILFQQLVELARLAIESGDEELLRRVSEWLEEVIKDMRRVVEQALREGNSELAARILIILFQQLVELARLAIESGDEELLRRVSEWLEEVIKDMRRVVEQALREGNSELAARILIILFQQLVELARLAIESGDEELLRRVSEWLEEVIKDMRRVVEQALREGNWYYGKVTRHQAEMALNERGHEGDFLIRDSESSPNDFSVSLKAQGKNKHFKVQLKETVYCIGQRKFSTMEELVEHYKKAPIFTSEQGEKLYLVKHLSELAARILIILFQQLVELARLAIESGDEELLRRVSEWLEEVIKDMRRVVEQALREGNSELACRILIILFQQLVELARLAIESGDEELLRRVSEWLEEVIKDMRRVVEQALREGN
modifications: not checked
  maximum binding response: 123 RUs
